We go through 1 molecule from publication PMC7770097 (Biochimica et biophysica acta. Proteins and proteomics, 2020).

The target in test [1] is full-length uPA (human urokinase plasminogen activator) (Homo sapiens, UniProt P00749, biotin (biotinylated antigen on streptavidin biosensors)). Nature of the test: BLI. (In general: In BLI a coated tip is dipped into the sample, and binding shifts an interference pattern.)
Test [2] addresses human uPA (form not stated) (human, UniProt P00749). The experiment in a line: ELISA. (In an ELISA, binding on a coated surface is turned into a signal by an enzyme label.)

B1: AB2 Fab (Fab, V domains shown)
VH: QLTQSGGGLVKPGRSLRLSCTASGFTFGDYAMSWVRQAPGKGLEWVGFVRSESAGATTEYAASVKGRFTISRDDSKSIAYLQMNALKTEDTAVYYCIRGANWNWGQGTLVTVSS
VL: EIVLTQSPLSLPVTPGEPASISCRSSQLMNRNGNNFLDWYLQKPGQSPQLLIYLGSNRAPGVPDRFSGSGSGTDFTLKISRVEAEDVGVYYCMARVEAPYSFGQGTKLEIR
As to B1, the binding result in test [1] and in test [2] was “binds” throughout.
